Substrate in series [1]: O=C(OCCO)c1ccc(C(=O)OCCO)cc1
Kind of series: HPLC substrate reduction, Michaelis-Menten fit. Format: biochemical, Pseudideonella sakaiensis. The settings on record: 40°C, 20 mM Tris-HCl pH 8.0. The source says: (§1) HPLC substrate reduction, Michaelis-Menten fit on IsPETase

Substrate in series [2]: O=C(O)c1ccc(C(=O)OCCO)cc1
Kind of series: HPLC substrate reduction, Michaelis-Menten fit. Format: biochemical, Pseudideonella sakaiensis. The settings on record: 40°C, 20 mM Tris-HCl pH 8.0.
Description: as §1

Substrate in series [3]: O=C(OCCO)c1ccc(C(=O)OCCO)cc1
Kind of series: HPLC substrate reduction, Michaelis-Menten fit. In kind it is biochemical, unidentified prokaryotic organism. The settings on record: 40°C, 20 mM Tris-HCl pH 8.0. An excerpt:
(§2) HPLC substrate reduction, Michaelis-Menten fit on ICCG

Substrate in series [4]: O=C(O)c1ccc(C(=O)OCCO)cc1
Kind of series: HPLC substrate reduction, Michaelis-Menten fit. Format: biochemical, unidentified prokaryotic organism. Particulars: 40°C, 20 mM Tris-HCl pH 8.0.
Description: as §2

Substrate in series [5]: CCCCCCCCCCCCCC(=O)Oc1ccc([N+](=O)[O-])cc1
Nature of the series: purified protein. Format: biochemical, Marinactinospora thermotolerans. The settings on record: 30°C, 20 mM Tris-HCl pH 8.0.

Substrate in series [6]: CC(=O)Oc1ccc([N+](=O)[O-])cc1
Kind of series: purified protein. The settings on record: 30°C, 20 mM Tris-HCl pH 8.0. Format: biochemical, Marinactinospora thermotolerans.

Substrate in series [7]: CCCCCCCCCCCC(=O)Oc1ccc([N+](=O)[O-])cc1
Kind of series: purified protein. In kind it is biochemical, Marinactinospora thermotolerans. The settings on record: 30°C, 20 mM Tris-HCl pH 8.0.

Substrate in series [8]: CCCCCCCCCCCCCCCC(=O)Oc1ccc([N+](=O)[O-])cc1
Nature of the series: purified protein. Format: biochemical, Marinactinospora thermotolerans. The settings on record: 30°C, 20 mM Tris-HCl pH 8.0.

Substrate in series [9]: CCCCCCCCCCCCCCCCCC(=O)Oc1ccc([N+](=O)[O-])cc1
Nature of the series: purified protein. Format: biochemical, Marinactinospora thermotolerans. Particulars: 30°C, 20 mM Tris-HCl pH 8.0.

Substrate in series [10]: CCCC(=O)Oc1ccc([N+](=O)[O-])cc1
Kind of series: purified protein. Format: biochemical, Marinactinospora thermotolerans. The settings on record: 30°C, 20 mM Tris-HCl pH 8.0.

Substrate in series [11]: CCCCCCCC(=O)Oc1ccc([N+](=O)[O-])cc1
Kind of series: purified protein. Particulars: 30°C, 20 mM Tris-HCl pH 8.0. Format: biochemical, Marinactinospora thermotolerans.

Substrate in series [12]: CCCCCC(=O)Oc1ccc([N+](=O)[O-])cc1
Nature of the series: purified protein. In kind it is biochemical, Marinactinospora thermotolerans. Particulars: 30°C, 20 mM Tris-HCl pH 8.0.

Substrate in series [13]: CCCCCCCCCC(=O)Oc1ccc([N+](=O)[O-])cc1
Kind of series: purified protein. Format: biochemical, Marinactinospora thermotolerans. Particulars: 30°C, 20 mM Tris-HCl pH 8.0.

Substrate in series [14]: O=C(OCCO)c1ccc(C(=O)OCCO)cc1
Nature of the series: HPLC substrate reduction, Michaelis-Menten fit. In kind it is biochemical, Marinactinospora thermotolerans. Particulars: 40°C, 20 mM Tris-HCl pH 8.0. An excerpt:
(§3) HPLC substrate reduction, Michaelis-Menten fit on MtCut

Substrate in series [15]: O=C(O)c1ccc(C(=O)OCCO)cc1
Nature of the series: HPLC substrate reduction, Michaelis-Menten fit. Format: biochemical, Marinactinospora thermotolerans. The settings on record: 40°C, 20 mM Tris-HCl pH 8.0.
Description: as §3

One may read the Km as the substrate concentration at which the rate is half of its maximum. For orientation: kcat means the maximal rate divided by the concentration of active sites. As usually defined, the kcat/Km is the turnover number divided by the Michaelis constant.

B1: IsPETase (Pseudideonella sakaiensis) (protein)
chain: QTNPYARGPNPTAASLEASAGPFTVRSFTVSRPSGYGAGTVYYPTNAGGTVGAIAIVPGYTARQSSIKWWGPRLASHGFVVITIDTNSTLDQPSSRSSQQMAALRQVASLNGTSSSPIYGKVDTARMGVMGWSMGGGGSLISAANNPSLKAAAPQAPWDSSTNFSSVTVPTLIFACENDSIAPVNSSALPIYDSMSRNAKQFLEINGGSHSCANSGNSNQALIGKKGVAWMKRFMDNDTRYSTFACENPNSTRVSDFRTANCS
notes: purified enzyme; expression construct not described
B1: in series [1], the Km amounted to 4480 ± 540 µM, the kcat came out at 5.95 ± 0.62 s⁻¹ and the kcat/Km amounted to 1330 ± 20 M⁻¹ s⁻¹. In [2], the Km turned out to be 720 ± 20 µM, the kcat came to 0.0139 ± 0.0006 s⁻¹ and the kcat/Km came to 19.2 ± 0.45 M⁻¹ s⁻¹.

B2: ICCG (unidentified prokaryotic organism; D238C/F243I/S283C/Y127G) (protein)
chain: SNPYQRGPNPTRSALTADGPFSVATYTVSRLSVSGFGGGVIYYPTGTSLTFGGIAMSPGYTADASSLAWLGRRLASHGFVVLVINTNSRFDGPDSRASQLSAALNYLRTSSPSAVRARLDANRLAVAGHSMGGGGTLRIAEQNPSLKAAVPLTPWHTDKTFNTSVPVLIVGAEADTVAPVSQHAIPFYQNLPSTTPKVYVELCNASHIAPNSNNAAISVYTISWMKLWVDNDTRYRQFLCNVNDPALCDFRTNNRHCQ
notes: quadruple variant of LCC; only D238C/S283C given, the other two changes (F243I, Y127G) known from Tournier et al. 2020; expression construct not described; PDB 6THT given as the ICCG structure used for modelling
Consider B2, for which, in series [3], the Km came out at 2580 ± 980 µM, the kcat was determined as 2.29 ± 0.95 s⁻¹ and the kcat/Km came to 1000 ± 170 M⁻¹ s⁻¹. Also, in series [4], the Km is 430 ± 20 µM, the kcat turned out to be 0.0032 ± 0.0001 s⁻¹ and the kcat/Km is 6.75 ± 0.32 M⁻¹ s⁻¹.

B3: MtCut (Marinactinospora thermotolerans DSM 45154) (protein)
chain: NPYERGPAPTESSVTAVRGYFDTDTDTVSSLVSGFGGGTIYYPTDTSEGTFGGVVIAPGYTASQSSMAWMGHRIASQGFVVFTIDTITRYDQPDSRGRQIEAALDYLVEDSDVADRVDGNRLAVMGHSMGGGGTLAAAENRPELRAAIPLTPWHLQKNWSDVEVPTMIIGAENDTVASVRTHSIPFYESLDEDLERAYLELDGASHFAPNISNTVIAKYSISWLKRFVDEDERYEQFLCPPPDTGLFSDFSDYRDSCPHTT
notes: 786 bp fragment, signal peptide removed, C-terminal His6 (pET22b(+), NdeI/XhoI), E. coli BL21(DE3), 34 kDa
Turning to B3, the Km in series [5] was 190 ± 40 µM; in [6], 550 ± 40 µM; in [7], 1680 ± 120 µM; in [8] it was 150 ± 10 µM; in [9], 450 ± 20 µM; in series [10], 1330 ± 150 µM. For the same protein, the Km in series [11] came out at 2550 ± 280 µM; in series [12], 4610 ± 1040 µM; in series [13], 4930 ± 530 µM; in series [14], 3070 ± 930 µM; in series [15], 750 ± 110 µM. The kcat in series [5] was 9.87 ± 1.52 s⁻¹; in series [6], 4.47 ± 0.28 s⁻¹; in series [7] it was 30.5 ± 3.63 s⁻¹; in series [8] it was 4.79 ± 0.12 s⁻¹; in series [9] it was 14.3 ± 0.58 s⁻¹; in series [10], 14.1 ± 1.51 s⁻¹. In addition, the kcat amounted to 79.4 ± 8.75 s⁻¹ in series [11]; 41.7 ± 6.35 s⁻¹ in [12]; 69.8 ± 5.15 s⁻¹ in series [13]; 4.27 ± 1.15 s⁻¹ in [14]; 0.13 ± 0.01 s⁻¹ in [15]. For the same protein, the kcat/Km in series [5] stood at 51400 ± 2900 M⁻¹ s⁻¹; in [6] it was 8190 ± 340 M⁻¹ s⁻¹; in series [7] it was 18100 ± 1200 M⁻¹ s⁻¹; in series [8], 32500 ± 1000 M⁻¹ s⁻¹; in series [9] it was 31800 ± 200 M⁻¹ s⁻¹; in series [10] it was 10600 ± 100 M⁻¹ s⁻¹. Moreover, the kcat/Km in series [11] was determined as 31100 ± 50 M⁻¹ s⁻¹; in series [12] it was 9230 ± 900 M⁻¹ s⁻¹; in series [13] it was 14200 ± 500 M⁻¹ s⁻¹; in series [14], 1410 ± 70 M⁻¹ s⁻¹; in series [15], 176 ± 14 M⁻¹ s⁻¹.
